The Kd is the equilibrium constant for the complex coming apart.

In test [1] the target is β-catenin (UniProt P35222). As to conditions: cited from earlier work.
Test [2] concerns the target β-catenin (UniProt P35222). As to conditions: cited from earlier work. The source holds these as a separate data set.
Test [3] addresses HMP-2_(54arm) (C. elegans) (UniProt O44326). The test is described as follows: ITC. In general terms: In ITC the heat of successive injections is recorded.
For test [4], the target named is HMP-2_(54end) (C. elegans) (UniProt O44326). The experiment in a line: ITC.

Like-named read-outs stand apart in the source and are kept apart here.

Chain of UniProt P35222 (P35222 2-781): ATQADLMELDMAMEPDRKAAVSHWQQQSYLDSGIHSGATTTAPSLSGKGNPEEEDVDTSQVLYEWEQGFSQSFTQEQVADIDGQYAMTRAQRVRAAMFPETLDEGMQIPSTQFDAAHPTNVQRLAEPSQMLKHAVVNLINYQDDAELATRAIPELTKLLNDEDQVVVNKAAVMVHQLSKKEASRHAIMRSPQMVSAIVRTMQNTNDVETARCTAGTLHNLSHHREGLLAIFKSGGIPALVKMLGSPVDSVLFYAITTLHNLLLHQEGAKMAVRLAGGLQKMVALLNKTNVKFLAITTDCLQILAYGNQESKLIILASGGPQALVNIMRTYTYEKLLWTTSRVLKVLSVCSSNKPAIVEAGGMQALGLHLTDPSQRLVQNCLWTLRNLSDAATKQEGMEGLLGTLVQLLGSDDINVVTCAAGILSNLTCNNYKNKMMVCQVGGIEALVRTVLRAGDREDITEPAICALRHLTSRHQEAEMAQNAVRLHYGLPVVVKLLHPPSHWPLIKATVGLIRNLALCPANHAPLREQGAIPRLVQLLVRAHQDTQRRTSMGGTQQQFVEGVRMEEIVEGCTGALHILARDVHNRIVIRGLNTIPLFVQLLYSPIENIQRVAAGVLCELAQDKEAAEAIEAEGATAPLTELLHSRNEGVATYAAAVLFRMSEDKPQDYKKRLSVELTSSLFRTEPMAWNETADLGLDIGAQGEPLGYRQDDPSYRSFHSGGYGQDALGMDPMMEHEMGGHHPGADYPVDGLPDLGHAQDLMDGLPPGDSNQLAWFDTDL

For the substance “E-cadherin cytoplasmic domain (from UniProt P12830)”, the figures for the Kd in the test with β-catenin [1] and with β-catenin [2] were 0.052 nM and 46 nM, respectively.

Regarding “HMR-1(T1215A)_(cyto80), non-phosphorylated (domain or fragment)”, the Kd in test [3] came out at 610 nM. Same read-out and setting: to HMR-1_(cyto80) (domain or fragment) belongs 380 nM; to “pHMR-1(T1215A)_(cyto80) (domain or fragment)”, 26 nM.

With pHMR-1_(cyto80) (domain or fragment), the Kd in test [3] is 3.1 nM; in test [4], 23 nM.

The values above are taken from article PMC4390766.
